Reference: US20170008937

Biological target: GST-Rac1 (UniProt P63000)

Substance: TcdASAS (Clostridium difficile toxin A with VNN mutated to SAS: V1109S, N1110A, N1111S)
- Rac1 glucosylation in vitro (Western blot, 100 nM toxin, 3 hours): not impaired in their capacity to glucosylate Rac1 in vitro
